From IntAct's records for PubMed 21252223 come the findings set out here.

The labels stand for the following.
B1: Swi5-dependent recombination DNA repair protein 1 homolog (Homo sapiens), Q86XK3 (parent)
chain: MAEGEKNQDFTFKMESPSDSAVVLPSTPQASANPSSPYTNSSRKQPMSATLRERLRKTRFSFNSSYNVVKRLKVESEENDQTFSEKPASSTEENCLEFQESFKHIDSEFEENTNLKNTLKNLNVCESQSLDSGSCSALQNEFVSEKLPKQRLNAEKAKLVKQVQEKEDLLRRLKLVKMYRSKNDLSQLQLLIKKWRSCSQLLLYELQSAVSEENKKLSLTQLIDHYGLDDKLLHYNRSEEEFIDV
partner: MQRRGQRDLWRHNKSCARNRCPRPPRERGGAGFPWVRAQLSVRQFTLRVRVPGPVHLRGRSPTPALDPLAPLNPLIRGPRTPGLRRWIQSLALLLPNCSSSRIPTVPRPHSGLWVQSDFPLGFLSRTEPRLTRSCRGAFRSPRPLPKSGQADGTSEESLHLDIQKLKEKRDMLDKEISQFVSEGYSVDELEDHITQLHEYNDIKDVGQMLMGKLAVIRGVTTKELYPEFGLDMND

Variants of B1 are the subject of this assay. The following applies: with swi5_human SWI5, Q1ZZU3.
Regarding MAEGEKNQDFTFKMESPSDSAVVLPSTPQASANPSSPYTNSSRKQPMSATLRERLRKTRFSFNSSYNVVKRLKVESEENDQTFSEKPASSTEENCLEFQESFKHIDSEFEENTNLKNTLKNLNVCESQSLDSGSCSALQNEFVSEKLPKQRLNAEKAKLVKQVQEKEDLLRRPKLVKMYRSKNDLSQLQLLIKKWRSCSQLLLYELQSAVSEENKKLSLTQLIDHYGLDDKLLHYNRSEEEFIDV [L173P], the “effect of a mutation on the interaction” value is given as “with no effect”.
